Columns and labels:
[1] = target: T1, 4Q4K FnbA mutant (recombinant Gln103Ala, Gln105Ala, Gln783Ala, Gln830Ala, Lys157Ala, Lys503Ala, Lys620Ala, and Lys762Ala mutant, residues Ala1-Pro839)
T1 chain: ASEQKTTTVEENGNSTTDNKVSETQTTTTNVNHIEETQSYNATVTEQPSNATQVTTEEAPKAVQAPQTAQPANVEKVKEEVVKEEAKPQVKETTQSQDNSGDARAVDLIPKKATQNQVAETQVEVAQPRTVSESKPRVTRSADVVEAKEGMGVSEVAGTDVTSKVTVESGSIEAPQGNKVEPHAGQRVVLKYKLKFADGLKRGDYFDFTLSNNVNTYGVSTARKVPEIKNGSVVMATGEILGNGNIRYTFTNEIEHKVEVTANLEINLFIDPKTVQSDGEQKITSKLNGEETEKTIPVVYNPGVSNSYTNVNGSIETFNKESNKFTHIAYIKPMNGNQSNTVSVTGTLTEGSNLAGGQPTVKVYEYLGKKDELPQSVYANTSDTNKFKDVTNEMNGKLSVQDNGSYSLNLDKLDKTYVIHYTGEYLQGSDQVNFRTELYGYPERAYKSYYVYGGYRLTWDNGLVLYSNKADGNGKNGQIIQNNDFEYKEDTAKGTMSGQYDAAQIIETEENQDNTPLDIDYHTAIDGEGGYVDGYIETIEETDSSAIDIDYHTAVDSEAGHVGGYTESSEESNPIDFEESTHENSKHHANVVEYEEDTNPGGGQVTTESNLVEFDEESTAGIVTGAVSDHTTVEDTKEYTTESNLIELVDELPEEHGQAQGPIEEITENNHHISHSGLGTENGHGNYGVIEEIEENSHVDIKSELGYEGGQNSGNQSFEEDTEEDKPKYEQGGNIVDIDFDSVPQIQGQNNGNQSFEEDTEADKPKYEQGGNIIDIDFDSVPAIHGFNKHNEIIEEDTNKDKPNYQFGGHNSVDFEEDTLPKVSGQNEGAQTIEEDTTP

[2] = target: T2, recombinant fibronectin-binding protein A (rFnbA) comprising residues Ala1 through Pro839 from S. aureus strain ATCC49525, wild type
T2 chain: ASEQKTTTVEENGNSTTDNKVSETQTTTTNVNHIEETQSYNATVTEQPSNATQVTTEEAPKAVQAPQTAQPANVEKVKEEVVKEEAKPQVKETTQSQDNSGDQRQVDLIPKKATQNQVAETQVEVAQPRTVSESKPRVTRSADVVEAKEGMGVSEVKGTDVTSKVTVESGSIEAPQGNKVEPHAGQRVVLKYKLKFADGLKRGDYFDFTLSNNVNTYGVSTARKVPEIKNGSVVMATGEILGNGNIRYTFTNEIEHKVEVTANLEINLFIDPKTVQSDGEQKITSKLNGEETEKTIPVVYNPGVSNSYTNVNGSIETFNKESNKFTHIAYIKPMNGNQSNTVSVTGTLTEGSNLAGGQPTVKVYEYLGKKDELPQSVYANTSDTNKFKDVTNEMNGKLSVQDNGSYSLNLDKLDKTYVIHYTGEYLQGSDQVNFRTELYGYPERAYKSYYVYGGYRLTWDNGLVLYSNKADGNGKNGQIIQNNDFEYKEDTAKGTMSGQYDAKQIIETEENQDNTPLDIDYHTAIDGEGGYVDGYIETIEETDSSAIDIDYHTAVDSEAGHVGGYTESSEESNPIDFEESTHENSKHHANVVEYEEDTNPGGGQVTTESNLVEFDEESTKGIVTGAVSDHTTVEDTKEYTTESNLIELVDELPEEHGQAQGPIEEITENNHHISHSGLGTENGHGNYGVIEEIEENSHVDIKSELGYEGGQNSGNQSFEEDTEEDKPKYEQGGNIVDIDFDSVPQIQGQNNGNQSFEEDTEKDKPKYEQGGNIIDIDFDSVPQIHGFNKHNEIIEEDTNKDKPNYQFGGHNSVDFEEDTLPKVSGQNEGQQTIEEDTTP

[3] = target: T3, 1Q FnbA mutant (recombinant Gln103Ala FnbA mutant, residues Ala1-Pro839)
T3 chain: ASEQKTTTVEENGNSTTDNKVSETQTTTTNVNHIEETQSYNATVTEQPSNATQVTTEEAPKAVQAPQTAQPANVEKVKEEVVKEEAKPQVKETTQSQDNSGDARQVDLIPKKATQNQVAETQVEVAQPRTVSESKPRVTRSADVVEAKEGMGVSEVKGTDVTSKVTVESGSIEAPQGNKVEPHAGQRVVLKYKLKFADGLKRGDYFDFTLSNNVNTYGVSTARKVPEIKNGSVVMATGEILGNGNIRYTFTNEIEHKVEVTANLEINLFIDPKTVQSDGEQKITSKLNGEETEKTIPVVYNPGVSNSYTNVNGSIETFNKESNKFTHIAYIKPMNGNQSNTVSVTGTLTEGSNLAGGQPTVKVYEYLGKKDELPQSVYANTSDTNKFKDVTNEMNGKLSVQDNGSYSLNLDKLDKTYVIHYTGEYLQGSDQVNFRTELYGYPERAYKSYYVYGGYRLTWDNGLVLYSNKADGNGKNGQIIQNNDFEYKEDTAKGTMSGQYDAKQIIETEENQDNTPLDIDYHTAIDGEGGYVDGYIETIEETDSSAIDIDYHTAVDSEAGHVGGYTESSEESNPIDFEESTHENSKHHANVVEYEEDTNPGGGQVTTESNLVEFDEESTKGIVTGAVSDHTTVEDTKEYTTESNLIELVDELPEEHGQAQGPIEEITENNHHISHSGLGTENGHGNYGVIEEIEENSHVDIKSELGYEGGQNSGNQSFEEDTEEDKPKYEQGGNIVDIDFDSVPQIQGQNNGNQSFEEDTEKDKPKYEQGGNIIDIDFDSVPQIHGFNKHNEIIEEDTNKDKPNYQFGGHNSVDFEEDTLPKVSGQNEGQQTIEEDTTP

B1: Factor XIIIa (Factor XIII, Haematologic Technologies, activated by thrombin) (protein)
chain 1: GVNLQEFLNVTSVHLFKERWDTNKVDHHTDKYENNKLIVRRGQSFYVQIDFSRPYDPRRDLFRVEYVIGRYPQENKGTYIPVPIVSELQSGKWGAKIVMREDRSVRLSIQSSPKCIVGKFRMYVAVWTPYGVLRTSRNPETDTYILFNPWCEDDAVYLDNEKEREEYVLNDIGVIFYGEVNDIKTRSWSYGQFEDGILDTCLYVMDRAQMDLSGRGNPIKVSRVGSAMVNAKDDEGVLVGSWDNIYAYGVPPSAWTGSVDILLEYRSSENPVRYGQCWVFAGVFNTFLRCLGIPARIVTNYFSAHDNDANLQMDIFLEEDGNVNSKLTKDSVWNYHCWNEAWMTRPDLPVGFGGWQAVDSTPQENSDGMYRCGPASVQAIKHGHVCFQFDAPFVFAEVNSDLIYITAKKDGTHVVENVDATHIGKLIVTKQIGGDGMMDITDTYKFQEGQEEERLALETALMYGAKKPLNTEGVMKSRSNVDMDFEVENAVLGKDFKLSITFRNNSHNRYTITAYLSANITFYTGVPKAEFKKETFDVTLEPLSFKKEAVLIQAGEYMGQLLEQASLHFFVTARINETRDVLAKQKSTVLTIPEIIIKVRGTQVVGSDMTVTVEFTNPLKETLRNVWVHLDGPGVTRPMKKMFREIRPNSTVQWEEVCRPWVSGHRKLIASMSSDSLRHVYGELDVQIQRRPSM
chain 2: EEKPCGFPHVENGRIAQYYYTFKSFYFPMSIDKKLSFFCLAGYTTESGRQEEQTTCTTEGWSPEPRCFKKCTKPDLSNGYISDVKLLYKIQENMRYGCASGYKTTGGKDEEVVQCLSDGWSSQPTCRKEHETCLAPELYNGNYSTTQKTFKVKDKVQYECATGYYTAGGKKTEEVECLTYGWSLTPKCTKLKCSSLRLIENGYFHPVKQTYEEGDVVQFFCHENYYLSGSDLIQCYNFGWYPESPVCEGRRNRCPPPPLPINSKIQTHSTTYRHGEIVHIECELNFEIHGSAEIRCEDGKWTEPPKCIEGQEKVACEEPPFIENGAANLHSKIYYNGDKVTYACKSGYLLHGSNEITCNRGKWTLPPECVENNENCKHPPVVMNGAVADGILASYATGSSVEYRCNEYYLLRGSKISRCEQGKWSSPPVCLEPCTVNVDYMNRNNIEMKWKYEGKVLHGDLIDFVCKQGYDLSPLTPLSELSVQCNRGEVKYPLCTRKESKGMCTSPPLIKHGVIISSTVDTYENGSSVEYRCFDHHFLEGSREAYCLDGMWTTPPLCLEPCTLSFTEMEKNNLLLKWDFDNRPHILHGEYIEFICRGDTYPAELYITGSILRMQCDRGQLKYPRCIPRQSTLSYQEPLRT
Q: B1 was tested. Which “Factor XIIIa-catalyzed incorporation of dansylcadaverine (fluorescence of the FnbA band on SDS-PAGE)” value (from here on “Factor XIIIa-catalyzed incorporation”) [1] did it give?
A: The value was “Further reduction in fluorescence intensity was observed with the 4Q4K rFnbA mutant”.

Q: And the “Factor XIIIa-catalyzed incorporation” value [2]?
A: The value was “the band corresponding to the wild-type FnbA undergoes a continual increase of fluorescence reflecting the enzymatic attachment of increasing molecules of the probe”.

Q: What about the “Factor XIIIa-catalyzed incorporation” value [3] of the same protein?
A: The value was “incorporation of dansylcadaverine into the 1Q FnbA mutant was drastically reduced”.

Reference: patent US20070218075
